# Laboratory results: the supplement of paper PMC9112550, “Optimization of the antimicrobial peptide Bac7 by deep mutational scanning” (BMC Biology, 2022)
# System: Escherichia coli TOP10
# Experiment: shrunken log2 fold change of peptide-encoding DNA abundance (4.5 h post-induction vs induction); higher = less antimicrobial activity (less host growth inhibition)
# Conditions: time post-induction: 4.5 h; library: site-saturation at positions 5, 18, 19, 20
# 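Further: peptides expressed intracellularly from a pBAD plasmid library in pooled LB shake-flask culture, induced with 0.3% L-arabinose, DNA abundance read by NGS, three biological replicates, DESeq2 with apeglm shrinkage.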
row,Sequence,shrunken log2 fold change
1,RRIRHRPPRLPRPRPRPTISPRP,-0.495
2,RRIRDRPPRLPRPRPRPHVIPRP,-0.0856
3,RRIRWRPPRLPRPRPRPANTPRP,-0.0364
4,RRIRSRPPRLPRPRPRPEGTPRP,0.123
5,RRIRKRPPRLPRPRPRPDNYPRP,-0.153
6,RRIRMRPPRLPRPRPRPALMPRP,0.114
7,RRIRHRPPRLPRPRPRPSKMPRP,-0.858
8,RRIRPRPPRLPRPRPRPQEGPRP,-0.259
9,RRIRFRPPRLPRPRPRPFCIPRP,-0.518
10,RRIRGRPPRLPRPRPRPNKFPRP,-0.106
11,RRIRCRPPRLPRPRPRPQFRPRP,-0.434
12,RRIRFRPPRLPRPRPRPNYFPRP,-0.383
13,RRIRNRPPRLPRPRPRPSRWPRP,0.417
14,RRIRARPPRLPRPRPRPPFRPRP,0.977
15,RRIRMRPPRLPRPRPRPWLHPRP,-0.493
16,RRIRKRPPRLPRPRPRPNTVPRP,0.126
17,RRIRTRPPRLPRPRPRPRCWPRP,0.386
18,RRIRERPPRLPRPRPRPDFQPRP,-0.37
19,RRIRCRPPRLPRPRPRPHDGPRP,0.0999
20,RRIRYRPPRLPRPRPRPMFVPRP,-0.228
21,RRIRWRPPRLPRPRPRPHGHPRP,-0.0213
22,RRIRWRPPRLPRPRPRPCRKPRP,-0.0352

row,Sequence,shrunken log2 fold change
1,RRIRNRPPRLPRPRPRPTYEPRP,-0.172
2,RRIRERPPRLPRPRPRPPMCPRP,-0.305
3,RRIRCRPPRLPRPRPRPDLDPRP,0.0676
4,RRIRQRPPRLPRPRPRPCGAPRP,0.133
5,RRIRHRPPRLPRPRPRPSPRPRP,0.0803
6,RRIRERPPRLPRPRPRPRWTPRP,0.0925
7,RRIRVRPPRLPRPRPRPTKQPRP,-0.0322
8,RRIRSRPPRLPRPRPRPHECPRP,-0.0285
9,RRIRERPPRLPRPRPRPNKSPRP,-0.369
10,RRIRTRPPRLPRPRPRPTGWPRP,0.511
11,RRIRNRPPRLPRPRPRPIKKPRP,0.149
12,RRIRARPPRLPRPRPRPGTFPRP,-0.125
13,RRIRGRPPRLPRPRPRPELYPRP,1.14
14,RRIRPRPPRLPRPRPRPVMHPRP,0.15
15,RRIRYRPPRLPRPRPRPRGMPRP,-0.019
16,RRIRCRPPRLPRPRPRPNYLPRP,-0.797
17,RRIRTRPPRLPRPRPRPFQKPRP,-0.0018
18,RRIRVRPPRLPRPRPRPGFNPRP,-0.0909
19,RRIRLRPPRLPRPRPRPLLIPRP,-0.514
20,RRIRKRPPRLPRPRPRPPVAPRP,0.974
21,RRIRLRPPRLPRPRPRPSAQPRP,0.0425
22,RRIRWRPPRLPRPRPRPMFVPRP,-0.51

row,Sequence,shrunken log2 fold change
1,RRIRDRPPRLPRPRPRPFLSPRP,0.0846
2,RRIRERPPRLPRPRPRPVVGPRP,-0.106
3,RRIRYRPPRLPRPRPRPYLLPRP,-1.28
4,RRIRQRPPRLPRPRPRPFVHPRP,-0.0465
5,RRIRMRPPRLPRPRPRPWKFPRP,0.0673
6,RRIRQRPPRLPRPRPRPWMEPRP,-3.98e-05
7,RRIRPRPPRLPRPRPRPQMKPRP,-0.151
8,RRIRVRPPRLPRPRPRPPTLPRP,0.252
9,RRIRPRPPRLPRPRPRPNGSPRP,0.0884
10,RRIRIRPPRLPRPRPRPFGSPRP,0.00777
11,RRIRTRPPRLPRPRPRPMFFPRP,-0.204
12,RRIRKRPPRLPRPRPRPKMDPRP,0.158
13,RRIRGRPPRLPRPRPRPKEPPRP,0.875
14,RRIRSRPPRLPRPRPRPEFSPRP,0.203
15,RRIRMRPPRLPRPRPRPIPGPRP,0.105
16,RRIRCRPPRLPRPRPRPYTYPRP,-0.456
17,RRIRGRPPRLPRPRPRPNIMPRP,0.0649
18,RRIRWRPPRLPRPRPRPIGSPRP,-0.0153
19,RRIRQRPPRLPRPRPRPEISPRP,0.139
20,RRIRHRPPRLPRPRPRPDQLPRP,-0.51
21,RRIRERPPRLPRPRPRPLVLPRP,-0.333
22,RRIRTRPPRLPRPRPRPHCHPRP,-0.0122

row,Sequence,shrunken log2 fold change
1,RRIRPRPPRLPRPRPRPEACPRP,0.321
2,RRIRLRPPRLPRPRPRPKCKPRP,-0.223
3,RRIRARPPRLPRPRPRPIECPRP,0.157
4,RRIRQRPPRLPRPRPRPMPKPRP,0.128
5,RRIRNRPPRLPRPRPRPAKNPRP,0.0221
6,RRIRTRPPRLPRPRPRPRSGPRP,0.284
7,RRIRMRPPRLPRPRPRPSRYPRP,-0.173
8,RRIRYRPPRLPRPRPRPSERPRP,-0.417
9,RRIRSRPPRLPRPRPRPPIVPRP,-0.0118
10,RRIRFRPPRLPRPRPRPQMLPRP,-0.179
11,RRIRVRPPRLPRPRPRPLHKPRP,-0.192
12,RRIRNRPPRLPRPRPRPKRNPRP,-0.189
13,RRIRWRPPRLPRPRPRPACCPRP,0.454
14,RRIRQRPPRLPRPRPRPTKYPRP,-0.257
15,RRIRHRPPRLPRPRPRPMVCPRP,-0.0703
16,RRIRIRPPRLPRPRPRPKSFPRP,0.0398
17,RRIRFRPPRLPRPRPRPKCGPRP,0.0559
18,RRIRGRPPRLPRPRPRPNSPPRP,-0.0974
19,RRIRVRPPRLPRPRPRPGVQPRP,-0.0209
20,RRIRFRPPRLPRPRPRPHRWPRP,-0.17
21,RRIRFRPPRLPRPRPRPSCPPRP,-0.72
22,RRIRMRPPRLPRPRPRPWGEPRP,0.232

row,Sequence,shrunken log2 fold change
1,RRIRMRPPRLPRPRPRPYVPPRP,-0.584
2,RRIRSRPPRLPRPRPRPSMKPRP,-0.59
3,RRIRDRPPRLPRPRPRPPKCPRP,0.0933
4,RRIRMRPPRLPRPRPRPKYWPRP,0.164
5,RRIRGRPPRLPRPRPRPNHQPRP,0.0643
6,RRIRGRPPRLPRPRPRPRMAPRP,1.06
7,RRIRYRPPRLPRPRPRPLYRPRP,-0.335
8,RRIRWRPPRLPRPRPRPGNHPRP,-0.163
9,RRIRARPPRLPRPRPRPPCKPRP,0.204
10,RRIRMRPPRLPRPRPRPSHDPRP,0.0846
11,RRIRIRPPRLPRPRPRPLHQPRP,-0.121
12,RRIRIRPPRLPRPRPRPGENPRP,-0.0334
13,RRIRTRPPRLPRPRPRPDYRPRP,0.0112
14,RRIRPRPPRLPRPRPRPEKFPRP,-0.181
15,RRIRPRPPRLPRPRPRPCTHPRP,-0.0646
16,RRIRTRPPRLPRPRPRPTTVPRP,-0.271
17,RRIRCRPPRLPRPRPRPNGHPRP,-0.023
18,RRIRKRPPRLPRPRPRPSCTPRP,0.0868
19,RRIRKRPPRLPRPRPRPKWHPRP,0.0114
20,RRIRARPPRLPRPRPRPYEFPRP,0.182
21,RRIRDRPPRLPRPRPRPPGIPRP,0.233
